The record followed here is patent US20050232926A1, “Antibodies specific for cancer associated antigen SM5-1 and uses thereof” (Oncomax Acquisition Corp., priority 2003, published 2005).

Residues, ends and D or L forms follow the SMILES beside them. *: point of attachment. Cbz = O=C(OCc1ccccc1)*; CH2F = FC*

In one assay the test system is QYC cells. In words: Inhibition of huSM5-1 induced apoptosis by caspase inhibitors. Type of assay: cell-based, human. To be noted: QYC cells incubated with caspase inhibitor at 50 mol/l for 2 h, then 50 ng/ml huSM5-1 antibody. The procedure:
To determine whether caspase is involved in huSM5-1 antibody induced apoptosis, a variety of caspase inhibitors were tested to observe the inhibitory rate of apoptosis. The caspase inhibitors tested included common caspase inhibitor (Z-VAD-FMK), caspase-1 inhibitor (Z-WEHD-FMK), caspase-2 inhibitor (Z-VDVAD-FMK), caspase-3 inhibitor (Z-DEVD-FMK), caspase-4 inhibitor (Z-YVAD-FMK), caspase-6 inhibitor (Z-VEID-FMK), caspase-8 inhibitor (Z-IETD-FMK), caspase-9 inhibitor (Z-LEHD-FMK), caspase-10 inhibitor (Z-AVED-FMK), caspase-13 inhibitor (Z-LEED-FMK). QYC cells were incubated with caspase inhibitor at 50 mol/l for 2 h. QYC cells were then treated with 50 ng/ml huSM5-1 antibody. The inhibitory rates of these inhibitors were: 72% for pan-caspase inhibitor, 52% for caspase-10 inhibitor, 28% for caspase-6 inhibitor, 27% for caspase-1 inhibitor, 17% for caspase-8 inhibitor, 15% for caspase-13 inhibitor, 14% for caspase-4 inhibitor, 5% for caspase-9 inhibitor, 1% for caspase-2 inhibitor, 1% for caspase-3 inhibitor.

The subject of assay [1] is hepatocellular carcinoma cell line QYC. In words: Cell growth inhibition by huSM5-1, MTT assay. Type of assay: cell-based, human. As for the experimental part:
Cell growth inhibition by huSM5-1 antibody was tested using MTT assay. MTT assay is based on the principle that viable cells can reduce yellow MTT into blue purple crystals. Cells of interest (1×10^3) were incubated with various concentrations of antibodies. After a period of time, 20 μl MTT (0.5 mg/ml) was added into the cell culture medium and was incubated for 2 h. After the incubation, culture medium was removed and 150 μl DMSO was added to solubilize the MTT precipitate. The reduced MTT was examined by measuring absorbance at 490 nm using Benchmark optical absorption reading machine (Bio-Rad Laboratories). The cell growth inhibition was calculated according to the following equation: Inhibition (%)=(B−C)/(A−C)×100
“A” represents the OD value of cells without huSM5-1 treatment; “B” represents the OD value of huSM5-1 treated cells; and “C” represents the OD value of negative control. Each condition was performed in triplicate.
Growth inhibition by huSM5-1 were tested in four tumor cell lines (hepatocellular carcinoma cell QYC and XJC, breast cancer cell line MDA-MB-231, and melanoma cell line CRL-1872) using MTT assay. Cells were treated with different amount of huSM5-1 (50 ng/ml, 10 ng/ml, 1 ng/ml) for 24 h, 48 h, 72 h, and 96 h. The most inhibition occurred when the concentration of the antibody was at 50 ng/ml and after 72 h treatment.

Assay [2] deals with melanoma cell line A2058. The assay is described as follows: MTT assay of viable cells after huSM5-1 treatment. To be noted: 570 nm, final volume 500 μl, 24 h. The assay is classed as cell-based, human. The procedure:
(§1) The melanoma cell line A2058 was expanded to 10^6/ml in RPMI-1640 culture medium. The cell suspension (20 μl) and different amount of huSM5-1 (0, 1, 5, 10, 20, 50, 100 μl) were added into each well of the 96 well plate. The antibody huSM5-1 was diluted in RPMI-1640 medium containning 10% FCS to reach a final concentration of 1 μg/μl before it was added into the well. RPMI-1640 medium containing 10% FCS was added to each well to make a final volume of 500 μl in each well. Each condition was performed in triplicate. Cells were incubated at 37° C. in a humidified incubator at 5% CO2 for 24 h. At the end of the incubation, cells were suspended and viable cells were examined under microscope or assessed using MTT.
MTT solution (5 mg/ml) was added into 0.2 ml cell suspension describe above at 1:10 dilution. The cells were then incubated at 37° C. for 30 min and optical adsorption at 570 nm for each sample was read.
On the technique in general: Tetrazolium assays rely on reduction of a dye to a coloured formazan, in cell work by metabolically active cells.

Assay [3] has as its system caspase-10. The assay is described as follows: Caspase-10 colorimetric activity assay in huSM5-1 treated XJC cells. Type of assay: cell-based. As for the experimental part: (§2) To further confirm that huSM5-1 induced apoptosis is caspase-10 related, caspase-10 color comparing analysis kit was used to examine the increase of caspase-10 bioactivity in QYC and XJC cells. Caspase-10 activity was examined with caspase-10 analysis kit (R&D, USA) according to manufacture's instruction. Cells were incubated with 50 ng/ml huSM5-1 antibody for a certain period of time. Cells were then centrifuged and lysed in a lysis buffer (25 ul/10^6 cells) on ice for 10 min. The lysates were centrifuged, and the supernatant was transferred into new tubes and kept on ice. The enzyme activity of caspase was examined on 96-well micro-titer plate. Each reaction included 50 μl supernatant from cell lysate, 50 μl 2× reaction buffer, 10 μl fresh DTT storage solution. In addition, 5 ul caspase-10 color-comparing substrate (AEVD-pNA) was added into the reaction. The plate was incubated at 37° C. for 1-2 h and absorbance at 405 nm was then measured. The increase of caspase-10 related activity was calculated according to the following equation: Caspase-10 activity (%)=(B−C)/(A−C)×100%
(§3) “A” represents OD value of supernatant from cell lysates without huSM5-1 antibody treatment; “B” represents OD value of supernatant from cell lysate treated with huSM5-1; “C” represents OD value of negative control. Each test was done in triplicate.

Assay [4] has as its system caspase-10. The assay is described as follows: Caspase-10 colorimetric activity assay in huSM5-1 treated QYC cells. Type of assay: cell-based, human. As for the experimental part:
as §2, §3

The subject of assay [5] is melanoma cell line A2058. The assay is described as follows: Viable cell count after huSM5-1 treatment. The assay is classed as cell-based, human. To be noted: final volume 500 μl, 24 h, relative to wells without huSM5-1. As for the experimental part:
as §1
Viable cells in 0.2 ml cell suspension from each well were counted. Viable cells are expressed as percentage of viable cells compared to the wells without addition of huSM5-1.

In the case of `COC(=O)CC[C@H](NC(=O)[C@H](Cc1c[nH]c2ccccc12)NC(=O)OCc1ccccc1)C(=O)N[C@@H](Cc1cnc[nH]1)C(=O)N[C@@H](CC(=O)OC)C(=O)CF` [caspase-1 inhibitor, Z-WEHD-FMK] (Cbz-WE(OMe)HD(OMe)-CH2F), in the assay with QYC cells, the “inhibitory rate of huSM5-1 induced apoptosis” value (from here on “inhibitory rate”) is recorded as 27%.
On the same count and under the same terms, in the case of `COC(=O)C[C@H](NC(=O)[C@H](C)NC(=O)[C@@H](NC(=O)[C@H](CC(=O)OC)NC(=O)[C@@H](NC(=O)OCc1ccccc1)C(C)C)C(C)C)C(=O)CF` [caspase-2 inhibitor, Z-VDVAD-FMK] (Cbz-VD(OMe)VAD(OMe)-CH2F) it was 1%; in that of `COC(=O)C[C@H](NC(=O)[C@H](C)NC(=O)[C@@H](NC(=O)[C@H](Cc1ccc(O)cc1)NC(=O)OCc1ccccc1)C(C)C)C(=O)CF` [caspase-4 inhibitor, Z-YVAD-FMK], 14%.
The same measure, in the same setting: as for `COC(=O)CC[C@H](NC(=O)[C@H](CCC(=O)OC)NC(=O)[C@H](CC(C)C)NC(=O)OCc1ccccc1)C(=O)N[C@@H](CC(=O)OC)C(=O)CF` [caspase-13 inhibitor, Z-LEED-FMK] (Cbz-LE(OMe)E(OMe)D(OMe)-CH2F), the figure is 15%; as for `COC(=O)C[C@H](NC(=O)[C@H](C)NC(=O)[C@@H](NC(=O)OCc1ccccc1)C(C)C)C(=O)CF` [pan-caspase inhibitor, Z-VAD-FMK] (Cbz-Val-Ala-Asp(OMe)-CH2F), 72%.
Still for that read-out and setting: as for `CC[C@H](C)[C@H](NC(=O)[C@H](CCC(=O)OC)NC(=O)[C@@H](NC(=O)OCc1ccccc1)C(C)C)C(=O)N[C@@H](CC(=O)OC)C(=O)CF` [caspase-6 inhibitor, Z-VEID-FMK] (Cbz-VE(OMe)ID(OMe)-CH2F), the figure is 28%.
For the molecule `CC[C@H](C)[C@H](NC(=O)OCc1ccccc1)C(=O)N[C@@H](CCC(=O)OC)C(=O)N[C@H](C(=O)N[C@@H](CC(=O)OC)C(=O)CF)[C@@H](C)O` [caspase-8 inhibitor, Z-IETD-FMK] (Cbz-IE(OMe)TD(OMe)-CH2F), the “inhibitory rate” value with QYC cells came out at 17%.
Still for that read-out and setting: in the case of `COC(=O)CCC(NC(=O)C(NC(=O)C(C)NC(=O)OCc1ccccc1)C(C)C)C(=O)NC(CC(=O)OC)C(=O)CF` (stereo not drawn) [caspase-10 inhibitor, Z-AVED-FMK] (Cbz-AVE(OMe)D(OMe)-CH2F; configuration not given here) it was 52%; in that of `COC(=O)CC[C@H](NC(=O)[C@H](CC(=O)OC)NC(=O)OCc1ccccc1)C(=O)N[C@H](C(=O)N[C@@H](CC(=O)OC)C(=O)CF)C(C)C` [caspase-3 inhibitor, Z-DEVD-FMK], 1%.
Consider `COC(=O)CC[C@H](NC(=O)[C@H](CC(C)C)NC(=O)OCc1ccccc1)C(=O)N[C@@H](Cc1cnc[nH]1)C(=O)N[C@@H](CC(=O)OC)C(=O)CF` [caspase-9 inhibitor, Z-LEHD-FMK] (Cbz-LE(OMe)HD(OMe)-CH2F), for which the “inhibitory rate” value in the assay with QYC cells came out at 5%.

B1: huSM5-1: human SM5-1 specific monoclonal antibody from phage library; VH SEQ ID NO:9, VL SEQ ID NO:10 (antibody, listed as Homo Sapiens, V domains shown)
VH: QVQLVESGGGVVQPGCSLRLSCSSSGYTFTSYTMHWVRQAPGKGLEWIGYINPYNDGGKYNEKFKWRFSISSDKSKNTLFLQSDSLTPEDTGVYYCARGSRYDWYGDYWGQGTPVTVSS
VL: DIQMTQSPSSLSGSVGDRVTITCDSSQSVLYSSKDDNYLAWYQQGPGKAPSLLIYYASDRESDVPSRFSGSGSGDDYTLTISSLQPEDAATYYCHQWFSSYTFDQGTKLNITR
Turning to B1, the growth inhibition in assay [1] (1 ng/ml, 24 h) is 7%; in assay [1] (1 ng/ml, 48 h), around 5%; in assay [1] (1 ng/ml, 72 h), 10%; in assay [1] (1 ng/ml, 96 h) it was 2.5%; in assay [1] (10 ng/ml, 24 h) it was 11%; in assay [1] (10 ng/ml, 48 h), around 17%. Besides, the growth inhibition in assay [1] (10 ng/ml, 72 h) is given as 19%; in assay [1] (10 ng/ml, 96 h), 11%; in assay [1] (50 ng/ml, 24 h), 29%; in assay [1] (50 ng/ml, 48 h), “about 28%”; in assay [1] (50 ng/ml, 72 h), 43%; in assay [1] (50 ng/ml, 96 h) it was 36%. Besides, the “Optical adsorption (%)” value with melanoma cell line A2058 [2] (huSM5-1 addition 1 ul (1 μg/μl)) came to 96.3%; in the assay with melanoma cell line A2058 [2] (huSM5-1 addition 5 ul (1 μg/μl)), 84.9%; in the assay with melanoma cell line A2058 [2] (huSM5-1 addition 10 ul (1 μg/μl)), 66.2%; with melanoma cell line A2058 [2] (huSM5-1 addition 20 ul (1 μg/μl)), 47.7%; in the assay with melanoma cell line A2058 [2] (huSM5-1 addition 50 ul (1 μg/μl)), 33.6%; in the assay with melanoma cell line A2058 [2] (huSM5-1 addition 100 ul (1 μg/μl)), 20.1%. The “Caspase-10 activity (%)” value with caspase-10 [3] (50 ng/ml huSM5-1, 48 h) is 17%; in the assay on caspase-10 [3] (50 ng/ml huSM5-1, 72 h), 38%; in the assay on caspase-10 [3] (50 ng/ml huSM5-1, 96 h), 28%; in the assay with caspase-10 [4] (50 ng/ml huSM5-1, 48 h), 13%; in the assay on caspase-10 [4] (50 ng/ml huSM5-1, 96 h) it was 51%. The “Cell survival (%)” value came out at 87.8% in the assay with melanoma cell line A2058 [5] (huSM5-1 addition 1 μl (1 μg/μl)); 68.8% in the assay with melanoma cell line A2058 [5] (huSM5-1 addition 5 μl (1 μg/μl)); 53.2% in the assay with melanoma cell line A2058 [5] (huSM5-1 addition 10 μl (1 μg/μl)); 42.6% with melanoma cell line A2058 [5] (huSM5-1 addition 20 μl (1 μg/μl)); 32.6% with melanoma cell line A2058 [5] (huSM5-1 addition 50 μl (1 μg/μl)); 22.6% in the assay with melanoma cell line A2058 [5] (huSM5-1 addition 100 μl (1 μg/μl)).
